Results reported in patent US10172917B2, “Targeted oesophageal administration of ZN-α2-glycoproteins (ZAG), methods and formulations thereof” (ASTON UNIVERSITY, priority 2012, dated 2019).

Columns and labels:
[1] = tested on: ob/ob mice; experiment: Serum metabolite and insulin levels in ob/ob mice after ZAG administration; assay type: in vivo, mouse; details: ob/ob mice after ZAG administration
Text: FCS (foetal calf serum) was from Biosera (Sussex, UK), while DMEM (Dulbecco's modified Eagles Medium) was from PAA (Somerset, UK) and Freestyle medium was purchased from Invitrogen (Paisley, UK). Hybond A nitrocellulose membranes and peroxidise—conjugated rabbit anti-mouse antibody were from GE Healthcare (Bucks, UK), while enhanced chemiluminescene (ECL) development kits were purchased from Thermo Scientific (Northumberland, UK). Mouse monoclonal antibodies to full-length human and mouse ZAG were from Santa Cruz Biotechnology (Santa Cruz, Calif. A mouse insulin ELISA kit was purchased from DRG (Marburg, Germany) and glucose measurements in both urine and plasma were made using a Boots (Nottingham, UK) glucose kit. L-[U-^14C] tyrosine (sp.act 16.7 GBqmmol^−1) was purchased from Perkin Elmer Ltd, (Cambridge, UK), while 2-[1-^14C] deoxy-D-glucose (sp.act 1.85 GBqmmol^−1) was from American Radiolabeled Chemicals (Cardiff, UK).
Obese (ob/ob) mice (average weight 65 g) were bred in a colony, and were kept in an air conditioned room at 22+2° C. with ad libitum feeding of a rat and mouse breeding diet (Special Diet Services, Witham, UK) and tap water. […] Animals were grouped (n=5) to receive either ZAG/PBS (50 μg day^−1), or PBS in their drinking water, the experiment was repeated three times after a power analysis was performed. […] The ZAG was replaced every 48 h. One group of mice receiving ZAG were also administered propanolol (40 mgkg^−1, p.o.) daily. The dose of ZAG was chosen to be the same as that previously administered i.v. (1), so that a direct comparison could be made, between the two routes. Body weight, food and water intake, urinary glucose excretion, and body temperature, determined by the use of a rectal thermometer (RS Components, Northants, UK), were measured daily. A glucose tolerance test was performed on day 3. Animals were fasted for 12 h, followed by oral administration of glucose (1 gkg^−1 in a volume of 100 μl by gavage). Blood samples were removed from the tail vein at 15, 30, 60 and 120 min and used for the measurement of glucose. Urinary glucose was measured by collecting 0.5 ml urine and testing glucose concentration using a Boots glucose monitor. After 8 days of treatment the animals were terminated by cervical dislocation, tissues were removed and rapidly frozen in liquid nitrogen, and maintained at −80° C. Future work would be to repeat this work in diet-induced animals as alternative to a model with gene alteration, although previous studies have shown the ob/ob mouse to be a good indicator of potential human treatments. Animal studies were conducted under Home Office Licence according to the UKCCCR Guidelines for the care and use of laboratory animals.

[2] = target: β3-AR (Homo sapiens, UniProt P13945); details: high affinity binding site on the β3-AR; previous studies; cited from earlier work
[3] = tested on: ZAG mRNA; experiment: ZAG gene expression in mouse tissues by RT-PCR; assay type: in vivo; details: mice treated with ZAG orally; compared to stomach, small intestine or colon
Experimental: Total RNA was extracted from tissues (50-120 mg) and adipocytes with Trizol. RNA samples used for real-time PCR were treated with a DNA-free kit (Ambion) to remove any genomic DNA. The RNA concentration was determined from the absorbance at 260 nm. 1 μg of total RNA of each sample was reverse transcribed to cDNA in a final volume of 20 μl by using a Reverse-iT first strand kit (ABgene). 1 μl of each cDNA sample was then amplified in a PCR mixture containing 0.02 mM of each primer and 1.1⋅Reddy Mix PCR Master Mix (ABgene) in a final volume of 25 μl. Human b-actin was used as a house keeping gene. The PCR products were sequenced commercially to confirm their identity (MWG Biotech). (7)
Relative ZAG mRNA levels were quantified using real-time PCR with an ABI Prism 7700 Sequence Detector (Applied Biosystems). Mouse β-actin mRNA levels were similarly measured and served as the reference gene. Primers and Taqman probes were designed using PrimerExpress software (Applied Biosystems).

[4] = tested on: BAT of ob/ob mice; details: ob/ob mice after ZAG administration; cited from earlier work

β3-AR, sequence (P13945 whole entry): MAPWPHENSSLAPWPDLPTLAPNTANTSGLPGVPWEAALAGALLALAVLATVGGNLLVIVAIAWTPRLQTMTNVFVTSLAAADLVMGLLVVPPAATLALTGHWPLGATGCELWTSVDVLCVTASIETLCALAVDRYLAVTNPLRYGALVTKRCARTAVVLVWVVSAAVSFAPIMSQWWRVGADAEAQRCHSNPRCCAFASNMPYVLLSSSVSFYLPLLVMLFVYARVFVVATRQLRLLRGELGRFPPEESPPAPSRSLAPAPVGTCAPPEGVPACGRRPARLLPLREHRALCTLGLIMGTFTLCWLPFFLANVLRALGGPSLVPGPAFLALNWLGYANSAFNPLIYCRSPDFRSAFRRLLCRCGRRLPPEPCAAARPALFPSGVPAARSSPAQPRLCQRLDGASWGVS

B1: zinc-α2-glycoprotein (protein, listed as Homo sapiens)
chain: QENQDGRYSLTYIYTGLSKHVEDVPAFQALGSLNDLQFFRYNSKDRKSQPMGLWRQVEGMEDWKEDSQLQKAREDMETLKDIVEYYNDSNGSHVLQGRFGCEIENNRSSGAFWKYYYDGKDYIEFNKEIPAWVPFDPAAQITKQKWEAEPVYVQRAKAYLEEECPATLRKYLKYSKNILDRQDPPSVVVTSHQAPGEKKKLKCLAYDFYPGKIDVHWTRAGQVQEPELRGDVLHNGNGTYQSWVVVAVPPQDTAPYSCHVQHSSLAQPLVVPWEAS
notes: Recombinant human ZAG, a 41 kDa protein, produced by HEK293F cells transfected with pcDNA3.1 containing human ZAG
serum glucose level [1]: decrease | serum glycerol level [1]: elevation | serum insulin level [1]: decrease | serum non-esterified fatty acids [1]: decrease | serum triglycerides [1]: decrease | Bmax [2]: 282±1 fmole mg protein^−1 | Kd [2]: 78 ± 45 nM | ZAG mRNA in oesophageal tissue [3]: dramatically increased | increase in oxygen uptake by BAT [4]: three-fold
